Consider 8 molecules from patent publication US20180071389A1 (HER MAJESTY THE QUEEN IN THE RIGHT OF CANADA AS REPRESENTED …, published 2018).

T1: sGP 1-295aa (Ebola virus (ZEbov by the title of …, UniProt P60170 33-295))
T1 sequence: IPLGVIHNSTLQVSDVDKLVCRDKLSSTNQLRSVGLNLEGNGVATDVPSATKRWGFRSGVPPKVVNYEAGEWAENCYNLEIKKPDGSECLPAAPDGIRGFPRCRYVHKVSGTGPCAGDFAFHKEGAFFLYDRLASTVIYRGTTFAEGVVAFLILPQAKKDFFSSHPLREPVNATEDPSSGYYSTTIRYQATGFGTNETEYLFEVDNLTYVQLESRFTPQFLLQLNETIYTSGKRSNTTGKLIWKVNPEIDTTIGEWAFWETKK

T2: Mucin domain 333-458aa (Ebola virus (ZEbov by the title of …, UniProt Q05320 333-458))
T2 sequence: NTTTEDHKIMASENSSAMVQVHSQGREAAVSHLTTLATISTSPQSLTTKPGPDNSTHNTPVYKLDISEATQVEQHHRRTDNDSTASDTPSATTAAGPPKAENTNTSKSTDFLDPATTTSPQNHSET

T3: GP1 1-501aa (Ebola virus (ZEbov by the title of …, UniProt Q05320 33-501))
T3 sequence: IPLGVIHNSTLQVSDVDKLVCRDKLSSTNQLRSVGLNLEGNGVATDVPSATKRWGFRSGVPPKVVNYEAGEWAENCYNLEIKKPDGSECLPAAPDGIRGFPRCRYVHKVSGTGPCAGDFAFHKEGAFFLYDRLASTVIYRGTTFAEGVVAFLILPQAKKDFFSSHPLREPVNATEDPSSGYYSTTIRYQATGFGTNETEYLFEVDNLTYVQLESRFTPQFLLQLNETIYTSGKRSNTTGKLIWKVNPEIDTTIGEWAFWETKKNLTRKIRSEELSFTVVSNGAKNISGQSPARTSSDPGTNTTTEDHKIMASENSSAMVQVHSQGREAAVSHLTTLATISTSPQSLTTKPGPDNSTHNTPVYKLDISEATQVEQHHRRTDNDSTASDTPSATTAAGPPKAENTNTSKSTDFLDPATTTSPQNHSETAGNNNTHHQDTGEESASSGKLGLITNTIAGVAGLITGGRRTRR

B1: monoclonal antibody 2G4 (antibody, V domains shown)
VH: GGGLMQPGGSMKLSCVASGFTFSNYWMNWVRQSPEKGLEWVAEIRLKSNNYATHYAESVKGRFTISRDDSKRSVYLQMNTLRAEDTGIYYCTRGNGNYRAMDYWGQGTSVTVSS
VL: ASLSVSVGETVSITCRASENIYSSLAWYQQKQGKSPQLLVYSATILADGVPSRFSGSGSGTQYSLKINSLQSEDFGTYYCQHFWGTPYTFGGGTKLEIKR
B2: monoclonal antibody 7C9 (antibody, V domains shown)
VH: GAELVKPGASVKLSCTASGFNIKDTYMHWVKERPDKGLEWIGRIDPANGNTKCDSRFQGKATITADTSSNTAYLQLSSLTSEDTAVYYCARRIYFGKGFDFWGQGTTLTVSS
VL: SSLSVSAGEKVTMSCKSSQSLFNSGDQKNYLAWYQQKPGQPPKLLIYGASTRESGVPDRFTGSGSGTDFTLTISSVQAEDLAVYYCQNDQFYPPTFGDGTKLDLKR
B3: monoclonal antibody 10C8 (antibody, V domains shown)
VH: GAELVRSGASVKLSCTSSGFNIKDYFLHWVKQRPEQGLEWIGWIDPENGDTEYAPKFQDKATMTADTSSNTAYLHLSSLTSEDTGVYYCNADGNYGKNYWGQGTTLTVSS
VL: LSLPVSLGDQASISCRSSQSLVHSNGNTFLHWYLQKPGQSPKLLIYRVSNRFSGVPDRFSGSGSGTDFTLKISRVEAEDLGVYFCSQSTHVPPYTFGGGTKLEIKR
B4: monoclonal antibody 5E6 (antibody, V domains shown)
VH: GGGLVKPGGSLKLSCAASGSAFSRYDMSWVRQTPEKRLEWVAYISRGGGFIYYPDTVKGRFTISRDNAKNTLYLQMSSLKSDDTAMYYCARHVYYGSSPLYAMDYWGQGTSVTVSS
VL: SASFSLGASAKLTCTLSSQHSTFTIEWYQQQPLKPPKYVMELKKDGSHSTGDGIPDRFSGSSSGADRYLSISNIQPEDEAIYICGVGDTINEQFVYVFGGGTKVTVLG
B5: monoclonal antibody 7G4 (antibody, V domains shown)
VH: GGGLVQPGGSLRLSCATSGFTFTDHYMGWVRQPPGKALEWLAFVRYKAKGYTTEYTASVKGRFTISRDNSQSILYLQMNTLRTEDSATYYCARDRGGYVGAMDYWGQGTSVTVSS
VL: LSLPVSLGDQASISCRSSQSLVHRNGNTYFHWYLQKPGQSPKLLIYKVSNRFSGVPDRFSGSGSGTDFTLKISRVEAEDLGVYFCSQSTHVPYTFGGGTKLEIKR
B6: monoclonal antibody 5D2 (antibody, V domains shown)
VH: GPGLVRPSQSLSLTCTVTGYSITSDYAWNWIRQFPGNKLEWLGYITNTGSTGFNPSLKSRISITRDTSKNQFFLQLISVTTEDTATYHCARGLAYWGQGTLVTVSA
VL: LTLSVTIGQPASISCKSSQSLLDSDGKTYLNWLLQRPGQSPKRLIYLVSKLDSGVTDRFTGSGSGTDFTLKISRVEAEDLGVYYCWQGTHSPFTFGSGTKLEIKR
B7: monoclonal antibody 4G7 (antibody, V domains shown)
VH: GPELEMPGASVKISCKASGSSFTGFSMNWVKQSNGKSLEWIGNIDTYYGGTTYNQKFKGKATLTVDKSSSTAYMQLKSLTSEDSAVYYCARSAYYGSTFAYWGQGTLVTVSA
VL: ASLSASVGETVTITCRASENIYSYLAWYQQKQGKSPQLLVYNAKTLIEGVPSRFSGSGSGTQFSLKINSLQPEDFGSYFCQHHFGTPFTFGSGTELEIKR
B8: monoclonal antibody 1H3 (antibody, V domains shown)
VH: GAELVKPGASVKLSCTASGFNIKDTYIHWVKQGPEQGLEWIGRIDPANGNTKYDPKFQGKATITADTSSNTAYLQLSGLTSEDTAVYYCARESRISTMLTTGYFDYWGQGTTLTVSS
VL: AIMSASPGEKVTMTCSASSSVSYMYWYQQKPGSSPRLLIYDTSNLASGVPVRFSGSGSGTSYSLTISRMEAEDAATYYCQQWSSYPYTFGGGTKLEIKR

The target in the first assay is T1, sGP 1-295aa. The experiment in a line: ELISA, antigen coated 0.3 µg/well, serial dilutions of MAb.
Consider B1, for which the binding result is “no binding (tested: Cut off was 2X background)”. Take B2: the binding result is given as “no binding (tested: Cut off was 2X background)”.

Turning to B3, the binding result is “no binding (tested: Cut off was 2X background)”. Still for that read-out and setting: in the case of B4 it was “no binding (tested: Cut off was 2X background)”. Same read-out and setting: with B5 the entry was “no binding (tested: Cut off was 2X background)”; with B6, “no binding (tested: Cut off was 2X background)”. As to B7, the binding result is “no binding (tested: Cut off was 2X background)”.

In a further assay the target is T2, Mucin domain 333-458aa. The description is as above.
For the molecule B1, the binding result is given as “no binding (tested: Cut off was 2X background)”. Still for that read-out and setting: in the case of B8 it was “no binding (tested: Cut off was 2X background)”; in that of B7, “no binding (tested: Cut off was 2X background)”.

The target in the next assay is T3, GP1 1-501aa. The description is as above.
Take B1: the binding result is recorded as “no binding (tested: Cut off was 2X background)”.
